Molecular target: T1, C-terminally FLAG-tagged full length UCH-L5 (mouse, UniProt Q9WUP7 1-329)
T1 construct: range 1-329; Co-expressed in HEK-293 cells and immunoprecipitated with an anti-FLAG monoclonal; also called UCH-L5 FLAG
T1 sequence: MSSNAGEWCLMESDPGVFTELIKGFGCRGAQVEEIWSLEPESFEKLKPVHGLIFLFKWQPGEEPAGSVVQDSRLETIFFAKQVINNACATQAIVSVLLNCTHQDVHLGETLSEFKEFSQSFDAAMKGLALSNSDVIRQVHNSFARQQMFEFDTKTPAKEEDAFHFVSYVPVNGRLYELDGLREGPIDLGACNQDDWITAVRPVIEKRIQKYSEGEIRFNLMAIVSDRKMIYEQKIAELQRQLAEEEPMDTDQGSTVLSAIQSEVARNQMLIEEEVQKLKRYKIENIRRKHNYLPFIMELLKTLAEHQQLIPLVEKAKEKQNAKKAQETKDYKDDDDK
Assay: co-immunoprecipitation: anti-FLAG IP, anti-HA western blot, HEK-293 lysates
Experimental: C-terminally FLAG®-tagged UCH-L5 or UCH-L5ΔC were co-expressed in human embryonic kidney (HEK)—293 cells with N-terminally HA-tagged Smad proteins.
Referring to FIG. 3, HEK-293 cells were transfected with 20 μg of DNA construct directing the expression of UCH-L5 FLAG or UCH-L5ΔC FLAG and 20 μg of DNA construct expressing one of: HA-Smad 3₁₋₃₈₅; HA-Smad3₁₋₂₄₀; or HA-Smad3₁₋₄₄. Lysates of the cells were prepared by a standard detergent lysis method, using 1% Triton X-100 and then immunoprecipitated with an anti-FLAG monoclonal. The precipitated proteins were then subjected to SDS-PAGE.
For comparison, a blot of the same samples was then probed with a haemagglutinin-specific 1st antibody.

binding result: no binding
B1: N-terminally HA-tagged Smad3 residues 1-144 (other)
chain: MSSILPFTPPIVKRLLGWKKGEQNGQEEKWCEKAVKSLVKKLKKTGQLDELEKAITTQNVNTKCITIPRSLDGRLQVSHRKGLPHVIYCRLWRWPDLHSHHELRAMELCEFAFNMKKDEVCVNPYHYQRVETPVLPPVLVPRHT
notes: not shown: haemagglutinin (HA) tag, N-terminal

From patent US20060276386A1 (published 2006)
